Columns and labels:
Assay in all cases: EMSA
p53 (82-360);IFI16 HIN-B = p53 (82-360);IFI16 HIN-B (Homo sapiens;Homo sapiens, UniProt P04637;Q16666-2 82-360;515-710, |)
p53 (82-393);IFI16 HIN-A = p53 (82-393);IFI16 HIN-A (Homo sapiens;Homo sapiens, UniProt P04637;Q16666-2 82-393;192-393, |)
IFI16 HIN-A = IFI16 HIN-A (Homo sapiens, UniProt Q16666-2 192-393)
Chain of IFI16 HIN-A (Q16666 192-393): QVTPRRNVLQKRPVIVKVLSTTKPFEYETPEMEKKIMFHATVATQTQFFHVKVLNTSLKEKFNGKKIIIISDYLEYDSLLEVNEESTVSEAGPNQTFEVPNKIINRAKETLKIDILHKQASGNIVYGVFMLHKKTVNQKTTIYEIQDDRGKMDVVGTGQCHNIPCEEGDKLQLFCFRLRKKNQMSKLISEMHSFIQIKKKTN

B1: p53 consensus 20-mer (dsDNA)
DNA 1: GGACATGCCCGGGCATGTCC
DNA 2: GGACATGCCCGGGCATGTCC
- binding result (p53 (82-360);IFI16 HIN-B): binds
- binding result (p53 (82-393);IFI16 HIN-A): binds
- binding result (IFI16 HIN-A): no binding

Source: publication PMC3760383
